Assay results published in paper PMC11259703, “A small-molecule allele-selective transcriptional inhibitor of the MIF immune susceptibility locus” (The Journal of Biological Chemistry, 2024).

Assays:
[1] = test system: ICBP90 413-618 (SRA domain); test: AlphaScreen; conditions: IC50 of the small-molecule inhibitor CMFT, not a DNA affinity; EMSA: LightShift kit buffer, poly(dI-dC), 20 min at 22 C, 6% native PAGE; ELISA: 10 mM Tris-HCl pH 7.5, 50 mM KCl, 1 mM DTT; AlphaScreen: same plus 0.01% …
ICBP90 (UHRF1) = target: T1, ICBP90 (UHRF1) (Homo sapiens, UniProt Q96T88); test: AlphaScreen inhibition of purified ICBP90 SRA domain binding to biotinylated MIF promoter CATT8 DNA; confirmed by EMSA dose response
T1 construct: SET and RING finger-associated (SRA) domain, amino acids 413 to 618 (ICBP90^413-618), C-terminal 6xHis
T1 sequence (Q96T88 413-618): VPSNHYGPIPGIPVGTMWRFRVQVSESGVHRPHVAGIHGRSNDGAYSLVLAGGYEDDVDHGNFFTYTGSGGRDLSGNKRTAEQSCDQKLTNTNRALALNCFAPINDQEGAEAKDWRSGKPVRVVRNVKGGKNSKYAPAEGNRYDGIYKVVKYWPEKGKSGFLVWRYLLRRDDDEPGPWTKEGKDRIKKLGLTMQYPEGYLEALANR

Molecule	IC50 [1]	IC50 (ICBP90 (UHRF1))
MIF promoter CATT8 (-794 CATT8), 5'-biotin	490 nM	
COC(=O)c1ccc(O)c2nc3c(C=O)c(O)cc(O)c3nc12 [compound 3, 1-carbomethoxy-5-formyl-4,6,8-trihydroxyphenazine]		490 nM
